Assay results: the supplement of paper PMC9170038

Test system: MS2 coat protein
Test: apparent KD of MS2 coat protein; designed switch direction (-1 OFF switch, 1 ON switch): -1; higher = weaker reporter binding
Procedure, shortened: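 Designed RNA switches with common flanks were made on Illumina chips by stalled E. coli RNA polymerase. Titration with SNAP-549-labelled MS2 coat protein doubled from 0.7 or 1.5 nM up to 3 µM. Apparent KD is each design's median over clusters after curve-fitting normalised fluorescence.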

[1] = Eterna round: R95, input ligand: FMN 200 uM
[2] = Eterna round: R95, input ligand: microRNA oligo, concentration not stated
[3] = Eterna round: R95, input ligand: none
[4] = input ligand: microRNA oligo, concentration not stated

Sequence	apparent KD of MS2 coat protein (input ligand: FMN 200 uM) [nM]	apparent KD of MS2 coat protein (input ligand: none) [nM]	apparent KD of MS2 coat protein [1] [nM]	apparent KD of MS2 coat protein [2] [nM]	apparent KD of MS2 coat protein [3] [nM]	apparent KD of MS2 coat protein [4] [nM]
AAGAGCAGACGGAGAUCCAACAUGAGGAUCACCCAUGUCUCGCAAGCUUUUUGCUUGUCUUAUCCUCCUCUGUUCAC [Esquitian 4] (Eterna round: R97, puzzle: Sensor, turn-off variant 1)	14.8	14.6				
AAGAGGUCAGGAUAUACGGAAAGAGAGAGAAGGUGAGGGUAACAUGAGGAUCACCCAUGUAGAAGGGACUAAGA [JR_Exclu2_Sub074] (puzzle: Exclusion 2)			54.5	44.8	38.5	
AAGAGUGCAGGAUAUACUUGGUAGGGUAAGAUGAGUGAGGGACAUGAGGAUCACCCAUGUAGAAGGGCAGAGAG [JR_Exclu2_Sub057] (puzzle: Exclusion 2)			33.1	35.1	26.7	
AAGAGUGCAGGAUAUACUUGUUAGGACGGUUGGAUGAUUUGACAUGAGGAUCACCCAUGUAGAAGGGCAGAGAG [JR_Exclu2_Sub052] (puzzle: Exclusion 2)				126		
AAGAGUGCAGGAUAUACUUGUUAGGACGGUUGGAUGGUUUGACAUGAGGAUCACCCAUGUAGAAGGGCAGAGAG [JR_Exclu2_Sub053] (puzzle: Exclusion 2)				70.5		
AAGAUGCGGAUAGGAUAUGGAAAAAAAAAAAGACCAGAAGGAUUGGUCAUAUAACAUGAGGAUCACCCAUGUAUAUGUUGUGAA [AK ExNG1-3] (Eterna round: R96, puzzle: Exclusion NG 1)	17.8	19.3				21.3
AAGAUGCGGAUAGGAUAUGGAAAAAAAAAAGGAUUAGAAGGGUUGGUUAAAAUACAUGAGGAUCACCCAUGUGAAUCAUGAGAA [AK ExNG1-2.2] (Eterna round: R96, puzzle: Exclusion NG 1)	392	186				188
AAGAUGCGGAUAGGAUAUGGAAAGAAAAGAAAAUUAGAAGGGUUGGUUAAAAUACAUGAGGAUCACCCAUGUGAAUCAUGAGAA [AK ExNG1-2] (Eterna round: R96, puzzle: Exclusion NG 1)	132	99.9				89.8
AAGAUGCGGGUAGGAUAUGGAGAGAAAGAAAGACCAGAAGGAUUGGUCAUAUAACAUGAGGAUCACCCAUGUAUAUGUUGCGAA [EX ng 1 5] (Eterna round: R96, puzzle: Exclusion NG 1)	19.6	21				16.2
AAGCACAGAGGAUAUACAAUCCUCAGUGGGUCUGGCGAGCCACAUGAGGAUCACCCAUGUAGAAGGCUGGGCUC [Xezaoron] (puzzle: Exclusion 2)				11		
AAGCAGCGAGGAUAUGCUUGCGCGUGUUCUAGUUGAAAUAAACUUGAGGAUCACCCAAGUAGAAGGCGCAACCG [EX2 #44] (Eterna round: R97, puzzle: Exclusion 2)	437	65.6				
AAGCCCUGAGGAUAUCCCAACUCGCACAUGAGGAUCACCCAUGUCCUUCUCUGGGUUUCGGGAGAAGGCAGGCCUC [Megrez-8.3] (Eterna round: R97, puzzle: Exclusion 5)	398	911				
AAGCGCGUAGGAUAUACAUGAGGAUCACCCAUGUGAGGAAGGAGUUGGAAGUGUGGAAGUAGAAGGACGGAGUG [JR_Exclu3_Sub078] (puzzle: Exclusion 3)			35.4	44.3	41.7	
AAGCUGAAGUGCCCGUCUUACAUGAGGAUCACCCAUGUUUUGCUGAAGCGAAUACUCGCAUUAGCAAGUGAGGUCCA [Eternabot (Original) Solution 9] (Eterna round: R97, puzzle: Sensor, turn-off variant 1)	68.2	53.9				
AAGCUGGUAGGAUAUCGUACACGUAACAUGAGGAUCACCCAUGUGCGCUAUGUUGGAACUCGAGAAGGGCCCAUUC [Eternabot (L2) Solution 3] (Eterna round: R97, puzzle: Exclusion 5)	19.3	18.5				
AAGCUGUGAGGAUAUACAUGAGGAUCACCCAUGUUAAGGAAGUCUUGGUUAAUUUGGUGUAGAAGGCGCUUAUU [JR_Ex3_Sub018] (Eterna round: R97, puzzle: Exclusion 3)	32.6	32.4				
AAGGAAAAGUGAGGAUAUGGAAAUUUGGUGAUAACAUGAGGAUCACCCAUGUGAAAACAAUAAAAUUAGAAGGUAUAAAGAAAA [AK ExNG2-1.1] (Eterna round: R96, puzzle: Exclusion NG 2)	120	107				66.7
AAGGAACAUGAGGAUCACCCAUGUAAGGAUAUGCAAAGAGAGAAAGAAGAAGGAGAAAGCAGAAGGUACAAGGA [JR_Exclu1_Sub072] (puzzle: Exclusion 1)			47.3	36.2	65.8	
AAGGACAGAGGAUAUACAUAGAUACAGAUUCAUGUAGAACUACAUGAGGAUCACCCAUGUAGAAGGCUGUCCUA [Fiskers Ex 2 - 2] (Eterna round: R96, puzzle: Exclusion 2)	412	31.7				25.3
AAGGACAGAGGAUAUACAUAGAUACAGAUUCAUGUAGAACUACAUGAGGAUCACCCAUGUAGAAGGCUGUCCUA [Fiskers Ex 2 - 2] (puzzle: Exclusion 2)				29.4		
AAGGGUAAAGGAUAUACAUGAGGAUCACCCAUGUUGAGGAAGGUUAGAUGAGGAGUAAGUAGAAGGUUAGACGA [JR_Exclu3_Sub089] (puzzle: Exclusion 3)			57.1	52.6	69.6	
AAGGGUAGGCAGGAUAUCCAGGUCGACACCGCGGGAGAAGGGCUUACAUGAGGAUCACCCAUGUAGGGUGCGAG [EX6 A.2] (Eterna round: R97, puzzle: Exclusion 6)	253	133				
AAGGGUGCUUUCAGAACGACAUGAGGAUCACCCAUGUAGACUGAGGAUAUCUACUUCUAAGGACGGGAGAAGGUAGUGUAAUGC [Ex NG3 #67] (Eterna round: R96, puzzle: Exclusion NG 3)	19.7	21.5				15.9
